B1: CPEB3 Ribozyme (parent)
chain: GGGGGCCACAGCAGAAGCGUUCACGUCGCGGCCCCUGUCAGAUUCUGGUGAAUCUGCGAAUUCUGCUGU

In this data set the parent is B1. As to the kind of experiment: self-cleavage, relative activity (ratio to wild type); higher = more cleavage; co-transcriptional.
As for GGGGGCCACAGCAGAAGCGUUCAGGUCGCGGCCCCUGUCAGAUUCUGGUGAAUCAGCGAAUUCUGCUGU, the self-cleavage came out at 0.36.
Regarding GGGGGCCACAGCAGAAGCGUUCAGGUCGCGGCCCCUGUCAGAUUCUGGUGAAUCGGCGAAUUCUGCUGU, the self-cleavage was 0.191.
Turning to GGGGGCCACAGCAGAAGCGUUCAGGUCGCGGCCCCUGUCAGAUUCUGGUGAAUCUGCGAAUACUGCUGU, the self-cleavage was found to be 0.27.
As for GGGGGCCACAGCAGAAGCGUUCAGGUCGCGGCCCCUGUCAGAUUCUGGUGAAUCUGCGAAUGCUGCUGU, the self-cleavage turned out to be 0.203.
GGGGGCCACAGCAGAAGCGUUCAUGUCGCGGCCCCUGUCAGAUUCUGGUGAAUCUGCGACUUCUGCUGU: the self-cleavage turned out to be 0.254.
To GGGGGCCACAGCAGAAGCGUUCAGGUCGCGGCCCCUGUCAGAUUCUGGUGAAUCUGCGAAUUCUGCAGU belongs 0.368; to GGGGGCCACAGCAGAAGCGUUCAUGUCGCGGCCCCUGUCAGAUUCUGGUGACUCUGCGAAUUCUGCUGU, 0.791; to GGGGGCCACAGCAGAAGCGUUCAGGUCGCGGCCCCUGUCAGAUUCUGGCGAAUCUGCGAAUUCUGCUGU, 0.523.
Consider GGGGGCCACAGCAGAAGCGUUCAGGUCGCGGCCCCUGUCAGAUUCUGGUCAAUCUGCGAAUUCUGCUGU, for which the self-cleavage was determined as 0.347.
Regarding GGGGGCCACAGCAGAAGCGUUCAGGUCGCGGCCCCUGUCAGAUUCUGGUUAAUCUGCGAAUUCUGCUGU, the self-cleavage came to 0.441.
In the case of GGGGGCCACAGCAGAAGCGUUCAGGUCGCGGCCCCUGUCAGAUUCUGGUAAAUCUGCGAAUUCUGCUGU, the self-cleavage was 0.392.
As for GGGGGCCACAGCAGAAGCGUUCAUGUCGCGGCCCCUGUCAGAUUCUGGUGAAUCUGCGAAUUCUGAUGU, the self-cleavage was 0.331.
On to GGGGGCCACAGCAGAAGCGUUCAUGUCGCGGCCCCUGUCAGAUUCUGGUGAAUCUGCGAAUUCUGGUGU, for which the self-cleavage was determined as 0.346.
Turning to GGGGGCCACAGCAGAAGCGUUCAGGUCGCGGCCCCUGUCAGAUUCUGGUGAAUCUGCGAAUUCUGCUGC, the self-cleavage was 0.739.
For the variant GGGGGCCACAGCAGAAGCGUUCAGGUCGCGGCCCCUGUCAGAUUCCGGUGAAUCUGCGAAUUCUGCUGU, the self-cleavage was determined as 0.505.
As to GGGGGCCACAGCAGAAGCGUUCAGGUCGCGGCCCCUGUCAGAUUCGGGUGAAUCUGCGAAUUCUGCUGU, the self-cleavage was found to be 0.471.
As for GGGGGCCACAGCAGAAGCGUUCAGGUCGCGGCCCCUGUCAGAUUCAGGUGAAUCUGCGAAUUCUGCUGU, the self-cleavage was 0.452.
With GGGGGCCACAGCAGAAGCGUUCAGGUCGCGGCCCCUGUCAGAUUCUGGUGAAUCUGCGAAUUCCGCUGU, the self-cleavage is 0.315.
GGGGGCCACAGCAGAAGCGUUCAGGUCGCGGCCCCUGUCAGAUUCUGGUGAAUCUGCGAAUUCGGCUGU: the self-cleavage turned out to be 0.338.
In the case of GGGGGCCACAGCAGAAGCGUUCAGGUCGCGGCCCCUGUCAGAUUCUGGUGAAUCUUCGAAUUCUGCUGU, the self-cleavage amounted to 0.299.
To GGGGGCCACAGCAGAAGCGUUCAGGUCGCGGCCCCUGUCAGAUUCUGGUGAAUCUACGAAUUCUGCUGU belongs 0.22.
The value for GGGGGCCACAGCAGAAGCGUUCAUGUCGCGGCCCCUGUCAGAUUCUGGUGCAUCUGCGAAUUCUGCUGU was 0.782.
For the variant GGGGGCCACAGCAGAAGCGUUCAGGUCGCGGCCCCUGUCAGAUUCUGGUGAAACUGCGAAUUCUGCUGU, the self-cleavage was 0.339.
For GGGGGCCACAGCAGAAGCGUUCAGGUCGCGGCCCCUGUCAGAUUCUGGUGAACCUGCGAAUUCUGCUGU, the self-cleavage was 0.235.
As for GGGGGCCACAGCAGAAGCGUUCAGGUCGCGGCCCCUGUCAGAUUCUGGUGAAGCUGCGAAUUCUGCUGU, the self-cleavage is 0.177.
GGGGGCCACAGCAGAAGCGUUCAGGUCGCGGCCCCUGUCAGAUUCUGGUGAAUCUGCGAAAUCUGCUGU: the self-cleavage stood at 0.173.
With GGGGGCCACAGCAGAAGCGUUCAGGUCGCGGCCCCUGUCAGAUUCUGGUGAAUCUGCGAAGUCUGCUGU, the self-cleavage came out at 0.306.
GGGGGCCACAGCAGAAGCGUUCAGGUCGCGGCCCCUGUCAGAUUCUGGUGAAUCUGCGAACUCUGCUGU: the self-cleavage worked out at 0.284.
Take GGGGGCCACAGCAGAAGCGUUCAGGUCGCGGCCCCUGUCAGAUUCUUGUGAAUCUGCGAAUUCUGCUGU: the self-cleavage turned out to be 0.508.
In the case of GGGGGCCACAGCAGAAGCGUUCAGGUCGCGGCCCCUGUCAGAUUCUAGUGAAUCUGCGAAUUCUGCUGU, the self-cleavage came out at 0.491.
Consider GGGGGCCACAGCAGAAGCGUUCAUGUCGCGGCCCCUGUCAGAUUCUGGUGAAUCUGCGAAUUGUGCUGU, for which the self-cleavage turned out to be 0.328.
To GGGGGCCACAGCAGAAGCGUUCAUGUCGCGGCGCCUGUCAGAUUCUGGUGAAUCUGCGAAUUCUGCUGU belongs 0.294; to GGGGGCCACAGCAGAAGCGUUCAUGUCGCGGCACCUGUCAGAUUCUGGUGAAUCUGCGAAUUCUGCUGU, 0.465; to GGGGGCCACAGCAGAAGCGUUCAUGUCGCGGCUCCUGUCAGAUUCUGGUGAAUCUGCGAAUUCUGCUGU, 0.856.
Turning to GGGGGCCACAGCAGAAGCGUUCAGGUCGCGGCCCCUGUCAGAUUCUGGUGAAUCUGCCAAUUCUGCUGU, the self-cleavage was 0.248.
To GGGGGCCACAGCAGAAGCGUUCAGGUCGCGGCCCCUGUCAGAUUCUGGUGAAUCUGCAAAUUCUGCUGU belongs 0.247; to GGGGGCCACAGCAGAAGCGUUCAUGUCGCGGCCCCUGUCAGAUUCUGGUGAAUCUGGGAAUUCUGCUGU, 0.24.
Take GGGGGCCACAGCAGAAGCGUUCAUGUCGCGGCCCCUGUCAGAUUCUGGUGAAUCUGUGAAUUCUGCUGU: the self-cleavage was determined as 0.244.
Turning to GGGGGCCACAGCAGAAGCGUUCAGGUCGCGGCCCCUGCCAGAUUCUGGUGAAUCUGCGAAUUCUGCUGU, the self-cleavage worked out at 0.413.

These data come from the RNAGym collection of RNA variant scans (doi:10.7554/elife.80360).
